These results are taken from the DeepSol protein solubility set.

This series is described as follows: soluble on expression in E. coli; label from the status in PepcDB or PDB records.
Regarding “MSLDLFSWAAAQQAAQSAPLAARMRPQTLDEFVGQEHLVGPGRFLRRALEAGHLPSCILFGPPGTGKTTLARLMASNVNAHFEQLNAVTSGVQDIRRIVDEARARLAERGQKTVVFIDEIHRWRKDQQDALLPHVEDGLITLVGATTQNPLVSVNAPLVSRTRIFELKPLSDEHIAHLLDRALRTPGRGLGNYNATVTPEAMEHLVRMAGGDARAALNALELAVLLTQPDEQGRRTVTLETAEEALLKRAVVYDHDGDEHYHVASALIKSIRGSDPDAALYWLARMLYAGEDPRFIARRLVISAAEDIGLADPQALVIAQAAADAVSFIGMPEGRIPLAEAVVYLACAPKSNSAYLAIDRALAVVEREKTPPVPNHLKDTGYGSDQRLGYGKGYQYPHDFPGAWVEQRYLPEGVDGPFWEPKGYGREAELARLLRERRGREGHHHHHH”, the “soluble on expression in E. coli” value is “not soluble”.

Take “MSLDSLDKSKLERMLDIKEAHREGHLTLEEAKERMKKEVGSISPEEFAAAEQLFKERDQDECQNEDVRTMLQLFEGLINPIRPDLPFGHPIDAYLRENDKAKELLDQADALLERTFIPNPWIELMETLMGYKLHFARKQNQLYSTLEQKGFDRPSTTMWTYDDHIRDEMNKAMSLLREKDYDSFPAAYKEMAIVLRDLMEKEELILYPTSLKLISDKEFEEMKHGDREIGFFLIDMPELDAPAKQSKEAHGQSFMAELGALLAKHGMGTGGQDDKAILDVAEGKLTLEQINLLFRHLPVDISFVDENELVCFYTDTKHRVFPRSKGVIGREVRNCHPPKSVHIVEEIIDKFRRGEQDRAEFWINKPGVFIYIVYVAIRDADGRFRGVMEMMQDCTRIRSLEGSRTLLTEGHHHHHH”: the “soluble on expression in E. coli” value is “soluble”.

In the case of “MSLDTDRILRAFASLVQATLRTNYFVTRQGSARCRDVLALKLNAQLIDELPLPRPRYEIFVYSPRVEGVHLRFGPVARGGLRWSDRRDDFRTEILGLVKAQAVKNAVIVPVGAKGGFVVKRPPLPTGDPAADRDATRAEGVACYQLFISGLLDVTDNVDHATASVNPPPEVVRRDGDDAYLVVAADKGTATFSDIANDVAKSYGFWLGDAFASGGSVGYDHKAMGITARGAWEAVKRHFREIGIDTQTQDFTVVGIGDMSGDVFGNGMLLSKHIRLIAAFDHRHIFLDPNPDAAVSWAERRRMFELPRSSWSDYDRSLISEGGGVYSREQKAIPLSAQVRAVLGIDGSVDGGAAEMAPPNLIRAILRAPVDLLFNGGIGTYIKAESESDADVGDRANDPVRVNANQVRAKVIGEGGNLGVTALGRVEFDLSGGRINTDALDNSAGVDCSDHEVNIKILIDSLVSAGTVKADERTQLLESMTDEVAQLVLADNEDQNDLMGTSRANAASLLPVHAMQIKYLVAERGVNRELEALPSEKEIARRSEAGIGLTSPELATLMAHVKLGLKEEVLATELPDQDVFASRLPRYFPTALRERFTPEIRSHQLRREIVTTMLINDLVDTAGITYAFRIAEDVGVTPIDAVRTYVATDAIFGVGHIWRRIRAANLPIALSDRLTLDTREGHHHHHH”, the “soluble on expression in E. coli” value was “not soluble”.

For “MSLDTPRIILHNSDTAPLTHWLRAAFPQADFRECNSYEALPALIEGYRPEVVYSVRFAGTPGFPRDALFGPGGPRWIANGGAGTDHYGQWDPGQTTVTNTAGVAAEMMAEYILGGFLHFSLDVPGLQKDKAARVWNARTVRPLAGKTLLIIGLGHTGRAVAARSKAFGMKVLGTRARPKPMENVDEVHAADDLHDLLPHADFIAVSTPLIPATRGLIGAQEIAAMKSGVIFADVSRGGVVDQTALYDALSVGHVAAAALDVFETEPLPEISPLWALENVIISPHCSSVFAEWEEASFELFLQNLGRWMRGEGHHHHHH”, the “soluble on expression in E. coli” value is on record as “not soluble”.

For “MSLDVAIGEVLAEVAAQEGDRLALVEVVPNGMDSPVGAASTSRRWTYAQLNDDARRCASWLLTQFKTGDHICVWAPNVPEWIVLQYGAALSGLVLVTANPALKASELEFVLQQSQSVALFHLDAFRGVETGAVARSFASAKLRCISFSGWLAEIRRTEIGALPRIDPGQPAQIQYTSGTTGRPKGALLHHRGLITNASYVAARAGLDHSVLLSPMPLFHTAGSIMSVLGCLNSRSTLVLPLLFDPGTVLDAIAHTRADTLFGVPTMLLAVIDAQLQAPRDLSSLRVAASGGAQVPPELHRRIHDALKLPLLTVFGQTELSPIVSQTCIDDPDEQRIHSVGRPLWNVEVRIVDPNGDRVVVIGVEGEIQVRGYQTMLGYFNAPKETSETITADGWLRTGDLGAMDEAGYLRITGRLKDMIIRGGENIYPAEVEACLLRHPAVADISVFGAPDDKWGEVVAAAVRLVPDVPVTATELSAFCKTEIAPHKAPTVWYACTGFPLTASGKIQKFRLRDAAVEGELQRLSEGHHHHHH”, the “soluble on expression in E. coli” value was “soluble”.

On to “MSLDVSAYPFFRRDMSWLSFNERVLMEAADRTLPVYDRIKFLSIFSSNLEEFYTVRVAYHQAVLQKRRDRSEAEEDSDADAHILQAIRETVIRQDELYYRIFYDQILPTLEEHGIRLRTHAPTHPDHKAYLRRFFHEEIFPLLYPMLLLPSKVRTFIRSGRVYLAVRLKEKETDEAYSYALLNVPTDGLPRFVELPRLQTDTFYYYSFLEDIIKEHLDVVFPGYEVMDSYSIKVSRDADLLLDAQRPEDLPGEIRKKVKTRKLGAPTRFMYDGRMPDEVLRYICSSCDIDPEEAIRSGNYVNLQDLAMLPNPFAPRLETLTPEPLLSKHLEQAPSLMEGIRRKDYLIHVPYYTYDYVVRLLMEAAISPDVSEIRLTQYRVAENSSIISALEAAAQSGKKVSVFVELKARFDEENNLRLSERMRRSGIRIVYSMPGLKVHAKTALILYHTPAGERPQGIALLSTGNFNETTARIYSDTTLMTANTDIVHDVYRLFRILDGDPEPARFSRLLVARYNMGEAITNLIEREIENVKRGKRGYMLLKMNGLQDKNVITQLYRASEAGVEIDLIVRGICCLVPDMPQSRNIRVTRLVDMYLEHSRIWCFHNGGKEEVFISSADWMKRNLYNRIETACPVLDPTLRREIIDILEIQLRDNIKACRIDSSLNNIYKHNSDEKPVRAQAAIYRYLKGKEETTPAAKEGHHHHHH”, for which the “soluble on expression in E. coli” value is on record as “soluble”.

Take “MSLDYGINFWSDNDFIIEDGQVKINYKTKPAIIDIVKKVREEGYRGPLLLRFPHLIKKQVDKIFTHFETSIKQYHYKGQFKAVFPLKVNQFPNFVLPLVELSQNRCYGLEAGSKAELIIAMAYTNKGSPITVNGFKDKEMISLGFIAANMGHEITLTIEGLNELETIIEVAEEMGKPCPNIGLRIRLHSSGIGIWAKSGGINSKFGLTSTELLEGIRLLEKHKLIEKFTMIHFHIGSQISDISPLKKAMREAGNIYAELRKMGAKNLKSVNIGGGLAVEYTQHEGSPNRNYTLDEFAGDVVFSLKEIAKNKKEPEPDIYIESGRYIAASHALLVAPVLELFSQEYDEKALHLKDKNPQLIEELNELYNTVNEKYAIEYLHDSLDHMESLLTLFDLGYIDLQDRSNTEILVHLIIKKVIKILKHKNHSDIIRIQEQVQERYLLNCSFFQSLPDYWGLEQSFPVMPLDRLNKRPTRSASLWDITCDSDGEIGFDLNKPLFLHDVDVTTEEYFLGFFLVGAYQEVLGMRHNLFTHPTELSVEFEEDGTHSVTNLLEAQTILDVLDDLDYDEGHHHHHH”: the “soluble on expression in E. coli” value is given as “not soluble”.

For “MSLEALSSYQQRNNQQLDQWLNRIPFQTLPLIEAMRYGLLLGGKRARPYLVYITGQMLGCELSDLDTPASAVECIHAYSLIHDDLPAMDDDELRRGKPTCHIQFDEATAILTGDALQTLAFTILAEGDLSAAGETQRVAMLQALAEASGAQGMCLGQALDLAAENRLISLEELETIHRNKTGALMRCAIRLGALAAGEKGRAMLPHLDRYAEAVGLAFQVQDDILDIISDTETLGKPQGSDQELNKSTYPALLGLEGAQQKAHTLLQEALLALEAIPYNTEHLEEFARYVVERKNEGHHHHHH”, the “soluble on expression in E. coli” value is recorded as “soluble”.

Regarding “MSLEEDIQKQIIAAKEEAHDETIWGKPANDIITGIGNNSGVRPQRAIWEMVQNARDVSLNGKADIVFERQHDCFIFQHNGISFTNNTLEALILQTSSKVRNDSVQVGQYGTGFLTTHKLGLKFTLSSSVQLLENEQLFHHFSNFLIDRSSTDKKQMRDSLKKQIKITEEWARNPTIVSGPSSLTTFRYIQEHEVEKMNTKEAFKASSALAPYVIALNPCVNSISFVDNVEDCKELYIRKSTEIINTCDFYNVVKVTIDKCETESCDFTVLMLQSKETVEESGEPKVIVILPIKELESKSVAFALSKDVPNLFIYLPLLGTEQWGLNFIFHSPLFTCDKDSRDSLRFVGNGQNNDVDAERNKGIIQLADVIVSHYITENLSNIQDCMYLAKVAFNLHNSDEALANYYKSLQSSWVKKYESFPFVITKNGNIITRQAKVFDKELFDACLENKDLLTAVYNVTVQIYGTDYLPLETNMLFWSETLLQWYEAESFNPHLIHLSDIVEYIDKNNITTIGEENLWCIDNYIANSKQIGLFTKYKLLPTKNGELRVREDLLNPIIHDESLLKILDSLLPNDVASFIHTRFVLFEDVKIEEYDHNKVKESMRLLVSELSDLQKGHEIYRTNILAGLDVDSNKYEQNKLSDNHINALMGFYAYIVNIGGEAFQYKMIHLLADFYNIDLKSGEAYIKEIYDWRTVAPLLIKDALFRFTLMDSEGHHHHHH”, the “soluble on expression in E. coli” value was “not soluble”.

Regarding “MSLEGNLEELVYFYPPSTTPPAVGKYTQLISDLLQSVSIVDALPRGAAQAGILCQDTKEVLESENTVLEIAIPRQDNLVIVGDIHGQFADMLSNVLSIQLNLNNTKATDGRGSPSTEIYKFLFLGDYVDRGPQSLEVITLLFALKVEYPEHIFLLRGNHEEAQTSRLYGFFQECKSKLEGTGDRGPASVDITSSTWLQYNTVFCWLPLAAVVACPSGMFFCTHGGLSPHTLSVPLLRSLRRNEYGMVDDFEDTFYTPTSRGGDDMLEGPGAKARLVIDGLLWSDPEDQVSGCQMNNRGCGFIFGPDVTRSFLDRNYSYGFPPSKRQLIGEMKPGMQFILRGHQCAREGYMWCHGGLVLTLFSAPNYCGMHGNKGAVALLRGQVQAGKDRVELEFNVYDTVVRGGSDNLVACLSPFAFAHYFSGDSEGHHHHHH”, the “soluble on expression in E. coli” value is “soluble”.

Regarding “MSLEHWNKTFCLEVKGDYACFTRPEMKVERVSYDVITPSAARGIFEAIFWKPAIRWRIRKIEVLNPIKWISVRRNEVGQTASERSDGIFIETARQQRAGLFLRDVAYRLHAELEFVPPSERPDAKRPVPESLQDGRETSELRKDENPGKYYAIFERRARKGQCFNQPYLGCREFSCEFRLVDDLANEPPPISETRNLGFMLYDLDFQKNLKEPPPAFFPACLEKGVIKVPDWESEEVRKEGHHHHHH”, the “soluble on expression in E. coli” value is reported as “soluble”.

For the sequence “MSLEIPKDFFVKDGEPNVKIVVGSEGAAMDVVSAADIAAAIGSLLYTEKEVKVSDVSVVVRKDITYDPDDIPVFNNFYPNKNQVFIVGQDSLKDVEAWWNGSAFSANYTASVWNGGTYSGTYSLELENVANYGKYDLTGELTLKGITLEEIANNEVNFKDIEDFKDMTVKINSAVLNITLAVYNWTKTVKAKDPITGVTTTKVKWTLSNVQPGAGYSISDTISKGVGEGVTLKVFDKEFPIMFVGKAISKNAIVDAADSFVYGTYHGTDFYDQGQEVEFDGYKVEILDIDIQRNEGHHHHHH”, the “soluble on expression in E. coli” value is listed as “not soluble”.

Turning to “MSLEKKDTNSLKLLLIGNTGIGEYKSRAERKGLWYKLKRFLWTNEFDQTVSALAKWHAEEKADAVLGLGDFLGIPGPLSARDERFTKRWYDIFVKDAKLDIPWLMTLGEEEALVNPSASVRHHYTGEHPNWYMPNDAYTATFSFSTSMTMANGTIQHEAFNATVINVNTWNLFVGNPIANNMQSMMDRLMWLSDQLYTAVNQTTNWLIIMGHLPLVSTGPQGEQGRLQYVDDLYKNGQPRGPEAVLIQMLLSHYQVDLYVSAHDHFMEYVALEDLSKNTTTAFITSGAAVRLLDKDVGRGWIGRLRGALYPILCWSGRRILYAFHPGEGHHHHHH”, the “soluble on expression in E. coli” value is reported as “not soluble”.

“MSLEKLLPDPDPTFERPYTLCLSLDDLLIHSEWTREHGWRIAKRPGVDYFIRYLSQYYELVLFTTTPYATGEPVMRKLDPFRLILWPLYREATKFEDGEIVKDLSYLNRDLSKVIIIDTKAKHVRNQPDNAIILDPWKGDKDDKNLVNLIPFLEYIHTMQYSDVRKVIKSFDGKDIPTEGHHHHHH”: the “soluble on expression in E. coli” value is “soluble”.
